From the supplement of paper PMC9170038

Tested on: MS2 coat protein
Assay: apparent KD of MS2 coat protein; designed switch direction (-1 OFF switch, 1 ON switch): -1; higher = weaker reporter binding
How it was run: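 RNA switches sharing common flanks were transcribed by stalled E. coli RNA polymerase on Illumina chips. A doubling series of SNAP-549-labelled MS2 coat protein, from 0.7 or 1.5 nM to 3 µM, was applied in Tris-HCl pH 7.5 buffer with KCl, MgCl2, BSA, DTT, tRNA and Tween-20. Each step lasted 0.8–1.5 h at the bottom of the series and 10–20 min at the top. Normalised cluster fluorescence was curve-fitted, giving apparent KD as the per-design median over clusters.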

[1] = input ligand: microRNA oligo, concentration not stated
[2] = Eterna round: R95, input ligand: FMN 200 uM
[3] = Eterna round: R95, input ligand: microRNA oligo, concentration not stated
[4] = Eterna round: R95, input ligand: none

| Sequence | apparent KD of MS2 coat protein (input ligand: FMN 200 uM) | apparent KD of MS2 coat protein (input ligand: none) | apparent KD of MS2 coat protein [3] | further results |
| --- | --- | --- | --- | --- |
| CCGGUAGCAUAGGAUAUCGCCAACGUUGUAGUACGAGAAGGGUGCACAUGAGGAUCACCCAUGUUUCCUGGCCG [Eternabot (L2) Solution 63] (Eterna round: R97, puzzle: Exclusion 6) | 107 nM | 131 nM |  |  |
| CCGGUUGGCGCAGGAUAUACAUGAGGAUCACCCAUGUUCGUGAGGAUCACCCAUGAGUUUUUGUUGUAGAAGGGUGGCCCGGCC (Eterna round: R96, puzzle: Exclusion NG 2) | 24.4 nM | 28.5 nM |  | apparent KD of MS2 coat protein [1]: 16 nM |
| CCGUGCACGCUGCGCUCCUACAUGAGGAUCACCCAUGUGGUCCGGUGGCGUGGGUCGCCGGACUUGGCUCGUCUUGU [salish99_S_TOV1_R5_019] (Eterna round: R97, puzzle: Sensor, turn-off variant 1) | 83.1 nM |  |  |  |
| CCGUGCACGCUGCGGUCCUACAUGAGGAUCACCCAUGUGGUCUGGUGGCGUGGGUCGCCGGACUUGGCUCGUCUUGA [salish99_S_TOV1_R5_021] (Eterna round: R97, puzzle: Sensor, turn-off variant 1) | 18.8 nM | 19.2 nM |  |  |
| CCUAGCCUAAAAUCACGCAAGCUUUUUGCUUGUCUUAAGACAUGAGGAUCACCCAUGUCCGGGCUGAACUUAUGGAA [Veorxe] (puzzle: Sensor v3, turn-off variant 2) |  |  | 23.2 nM | apparent KD of MS2 coat protein [2]: 17.8 nM; apparent KD of MS2 coat protein [4]: 16.6 nM |
| CCUAUGUGAGGAUAUGUCUGGUCUUCUUUUGUUUUUUACAGACAGAAGGCACAUGAGGAUCACCCAUGUCAGAC [Ex4 - 3 - 47] (puzzle: Exclusion 4) |  |  | 17 nM |  |
| CCUAUGUUAGGAUAUCUAGUAAGAGGCCCAUAGGGCCGUGCAGAGAAGGGACAUGAGGAUCACCCAUGUGUCAC [Eternabot (L1) Solution 86] (Eterna round: R97, puzzle: Exclusion 4) | 26.7 nM | 34.6 nM |  |  |
| CCUCCACAUGAGGAUCACCCAUGUCAGGAUAUCGUGUGUGCGUUUUCGGUCUUUCGCGCGAGAAGGGACGACUG (puzzle: Exclusion 1) |  |  | 27.5 nM |  |
| CCUCCACAUGAGGAUCACCCAUGUCAGGAUAUCGUGUGUUUUUUUUCGGUCGUGCGUGCGAGAAGGGACGUCUU (puzzle: Exclusion 1) |  |  | 24.8 nM |  |
| CCUCCGCAUUAGGAUAUCGUCACAGAAAUGUGACGAGAAGGAAUGACAUGAGGAUCACCCAUGUUAACGUGAUG [Mod of Brourd 15 - Jieux - Exclusion 6] (Eterna round: R97, puzzle: Exclusion 6) | 276 nM | 48.7 nM |  |  |
| CCUCCGCAUUAGGAUAUCGUCCCGGAAACGGGACGAGAAGGAAUGACAUGAGGAUCACCCAUGUUAACGUGAUG [Mod of Brourd 18 - Jieux - Exclusion 6] (Eterna round: R97, puzzle: Exclusion 6) | 304 nM | 48.2 nM |  |  |
| CCUCGACAUGAGGAUCACCCAUGUCAGGAUAUUGUGUUUUGGGUUUUUUACCUUUAGGCAAGAAGGGAUGUGUG [LRO-Excl1-17] (puzzle: Exclusion 1) |  |  | 16.1 nM |  |
| CCUCGCAGGCAAGGAUAUCCUACAUUGUUCUGGCCCGGGCAUGCUACAUGAGGAUCACCCAUGUGGGAGAAGGUGCGCCACGGC [Design 31] (Eterna round: R96, puzzle: Exclusion NG 2) | 48.3 nM | 42.2 nM |  | apparent KD of MS2 coat protein [1]: 28.1 nM |
| CGAGCUUUUUGCUCGUCUUACAUGAGGAUCACCCAUGUCAUACAGAUAGAUAUACGAAAAGUAUAUCUAUCUGUAUG [Mod of sellena's -59.4, -80.7 kcal, A 10%] (Eterna round: R97, puzzle: Sensor, turn-off variant 1) | 23.3 nM | 27.5 nM |  |  |
| CGAGUGUAAGGAUAUUCGGCACUAGGGACCACCCUAGUGUAGAAGAAGGUACAUGAGGAUCACCCAUGUGGUUA [Bereisonma] (puzzle: Exclusion 4) |  |  | 273 nM |  |
| CGAUGCUCGAAUCCACAUGAGGAUCACCCAUGUCGAGUUAGCGAGGAUAUCGGAGACACAUAGUAUGAGAAGGCGCGAACCUGA [Ex NG3 #23] (Eterna round: R96, puzzle: Exclusion NG 3) | 15.5 nM | 12.1 nM |  | apparent KD of MS2 coat protein [1]: 10.5 nM |

| Sequence | apparent KD of MS2 coat protein (input ligand: FMN 200 uM) | apparent KD of MS2 coat protein (input ligand: none) | apparent KD of MS2 coat protein [3] | further results |
| --- | --- | --- | --- | --- |
| CGAUGCUCGAAUCCACAUGAGGAUCACCCAUGUCGAGUUAGCGAGGAUAUCGGUGACACAUAGUACGAGAAGGCGCGAACCUGA [Ex NG3 #25] (Eterna round: R96, puzzle: Exclusion NG 3) | 50.9 nM | 34.8 nM |  | apparent KD of MS2 coat protein [1]: 28.3 nM |
| CGAUGUUAUGUCAGGAUAUGCAUUGCGAAAGCGAUGCAGAAGGGACAUGAGGAUCACCCAUGUCCUAACCAUCG [Omei A 6] (puzzle: Brourd's mod of Exclusion 4) |  |  | 11.6 nM |  |
| CGAUGUUAUGUCAGGAUAUGCGUUGCGAAAGCAAUGUAGAAGGGACAUGAGGAUCACCCAUGUCCUAACCAUCG [Omei A 8] (puzzle: Brourd's mod of Exclusion 4) |  |  | 13 nM | apparent KD of MS2 coat protein [2]: 15.1 nM; apparent KD of MS2 coat protein [4]: 13.5 nM |
| CGCACACAUGAGGAUCACCCAUGUGAGGAUAUCAUGCUUCGUAGUAAACUACGAAGUGUGAGAAGGCACAUGUU [Omei Ex1 D9] (Eterna round: R97, puzzle: Exclusion 1) | 144 nM | 55 nM |  |  |
| CGCCUGUUAGGAUAUUAGUAGUAGUCAGAAUAGACUAUUACUGAGAAGGAACAUGAGGAUCACCCAUGUUGGCG [Eli x4 4.13] (Eterna round: R97, puzzle: Exclusion 4) | 19.9 nM | 15.5 nM |  |  |
| CGCGUAGGAGGAUAUAUGGCAUACAACAUGAGGAUCACCCAUGUAGUCGCACGUUGGGAUAUAGAAGGCCUGCGAA [Eternabot (L1) Solution 87] (Eterna round: R97, puzzle: Exclusion 5) | 18.3 nM | 20 nM |  |  |
| CGGCAAAGGAAGGAUAUGCUAGACGAUAGUCUAGCAGAAGGUCCUACAUGAGGAUCACCCAUGUGUCCUAGCCG [Mat - Exclusion 6 - Eli Mod - D9] (Eterna round: R97, puzzle: Exclusion 6) | 49.6 nM | 44.3 nM |  |  |
| CGGGCCCAGGCAGGAUAUGUACAGCCACAAAACCCUCGUGUGAGGGACAUGAGGAUCACCCAUGUAUAGAAGGGCCAGCGCGUA [Xeditein] (Eterna round: R96, puzzle: Exclusion NG 2) | 26.3 nM | 22 nM |  | apparent KD of MS2 coat protein [1]: 14 nM |
| CGGUACUGAGGAUAUACAUGAGGAUCACCCAUGUGUUCCAGCUAGCGUACUGGCAUUUGUAGAAGGCGGUGCUG [JL-ex3-3.22 Brourd mod] (puzzle: Exclusion 3) |  |  | 16 nM |  |
| CGGUGCUGAGGAUAUACAUGAGGAUCACCCAUGUGUGCCAGCUAGCUGACUGGCGCUUGUAGAAGGCAGUACUG [JL-ex3-2.12 Brourd mod] (puzzle: Exclusion 3) |  |  | 11.4 nM |  |
| CGGUGCUGAGGAUAUACAUGAGGAUCACCCAUGUGUUAUUGAUAGAAAACUGGCAGAUGUAGAAGGCGGUACUG [Mat - Exclusion 3 - Mod of JL D99] (puzzle: Exclusion 3) |  |  | 25.4 nM | apparent KD of MS2 coat protein [2]: 80.5 nM; apparent KD of MS2 coat protein [4]: 24.9 nM |
| CGGUGCUUCUGGAAACAUGAGGAUCACCCAUGUUGAGUUAGCGAGGAUAUCGGUAACACUUGUUAUGAGAAGGCGCGAACCAGA [Ex NG3 #35] (Eterna round: R96, puzzle: Exclusion NG 3) | 13.6 nM | 19.4 nM |  | apparent KD of MS2 coat protein [1]: 14.6 nM |
| CGGUGCUUGUGGAAACAUGAGGAUCACCCAUGUUGAGUUAGCGAGGAUAUCGGUAACACAUGUCACGAGAAGGCGCGAACCAGA [Ex NG3 #33] (Eterna round: R96, puzzle: Exclusion NG 3) | 39.6 nM | 16.2 nM |  | apparent KD of MS2 coat protein [1]: 18.1 nM |
| CGGUGUAACGUAGGAUAUCAGCGCAACUGACGAUGAGAAGGACGACAUGAGGAUCACCCAUGUGAUUUCUCAAUAUUAUACAUC [Prohibition 87 - Jieux - Exclusion NG 1] (Eterna round: R96, puzzle: Exclusion NG 1) | 511 nM | 74.5 nM |  | apparent KD of MS2 coat protein [1]: 58.9 nM |
| CGGUGUAGAGGAUAUACGUGAAUAUUAUUAGAUAAUAAUUUACAUGAGGAUCACCCAUGUAGAAGGCUAUAGCG [JR_Ex2_Sub083] (Eterna round: R97, puzzle: Exclusion 2) | 24.9 nM | 20.1 nM |  |  |
| CGUAAAAGGUAGGAUAUGCUAGACGAAAGUCUAGCAGAAGGACCUACAUGAGGAUCACCCAUGUGUCCAAUACG [Mat - Exclusion 6 - Eli Mod - D22] (Eterna round: R97, puzzle: Exclusion 6) | 50.7 nM | 117 nM |  |  |
